Numbering of substitutions follows the chain as printed. Names may count otherwise. Each block holds one binder with its values, some of them ahead of it.
How the values were obtained:
[1] = target: T1, cynomolgus monkey FcγRIIIaS extracellular domain with C-terminal His-tag (cynomolgus monkey, UniProt Q8SPW2 21-206 at identity 1.00)); experiment: SPR, antibody captured, FcγR analyte
T1 construct: also called cyno FcgRIIIaS; cynoFcγRIIIaS
T1 chain: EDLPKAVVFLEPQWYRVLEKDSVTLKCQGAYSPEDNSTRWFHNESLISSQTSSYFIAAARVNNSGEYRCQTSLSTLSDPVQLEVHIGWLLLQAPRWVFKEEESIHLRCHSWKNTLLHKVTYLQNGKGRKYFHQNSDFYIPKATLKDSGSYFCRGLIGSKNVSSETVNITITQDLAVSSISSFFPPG

[2] = target: T2, cynomolgus monkey FcγRIIa2 extracellular domain with C-terminal His-tag (cynomolgus monkey); experiment: SPR, KD(SG1)/KD(variant)
T2 construct: also called cyno FcgRIIa2; cynoFcγRIIa2
T2 chain: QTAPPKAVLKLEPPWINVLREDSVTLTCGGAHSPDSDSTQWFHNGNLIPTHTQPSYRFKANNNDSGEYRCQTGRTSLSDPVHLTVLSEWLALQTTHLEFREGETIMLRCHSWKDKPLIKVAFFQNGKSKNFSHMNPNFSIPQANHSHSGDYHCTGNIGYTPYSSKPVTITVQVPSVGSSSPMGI
Procedure: (§1) The kinetic analysis of interactions between these antibodies and FcγR was carried out using BIACORE® T200 or BIACORE® 4000 (GE Healthcare). HBS-EP+ (GE Healthcare) was used as the running buffer, and the measurement temperature was set to 25° C. […] After the measurement, the antibody captured on the chip was washed off by allowing reaction with 10 mM glycine-HCl, pH1.5 and 25 mM NaOH so that the chip was regenerated and used repeatedly. The sensorgrams obtained as measurement results were analyzed by the 1:1 Langmuir binding model using the BIACORE® Evaluation Software to calculate the binding rate constant ka (L/mol/s) and dissociation rate constant kd (1/s), and the dissociation constant KD (mol/L) was calculated from these values. […] Regarding such interactions, KD values were calculated using the following 1:1 binding model described in BIACORE® T100 Software Handbook BR1006-48 Edition AE.

[3] = target: T1, cynomolgus monkey FcγRIIIaS …; experiment: SPR, KD(SG1)/KD(variant)
Procedure: as §1

[4] = target: T3, human FcγRIIIaV extracellular domain with C-terminal His-tag (human, UniProt P08637 17-208); experiment: SPR, KD(SG1)/KD(variant)
T3 construct: also called human FcgRIIIaV
Procedure: as §1
T3 sequence (P08637 17-208 F176V): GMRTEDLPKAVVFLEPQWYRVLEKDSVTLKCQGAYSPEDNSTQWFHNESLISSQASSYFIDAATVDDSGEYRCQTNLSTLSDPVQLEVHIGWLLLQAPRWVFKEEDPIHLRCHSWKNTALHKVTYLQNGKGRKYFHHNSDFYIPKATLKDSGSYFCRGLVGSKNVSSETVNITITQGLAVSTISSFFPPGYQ

[5] = target: T4, cynomolgus monkey FcγRIIa3 extracellular domain, His-tagged (cynomolgus monkey); experiment: SPR Biacore, antibody captured, FcgR analyte
T4 construct: also called cyno FcγRIIa3; cynoFcgRIIa3; not shown: C-terminal His-tag
T4 chain: T2 chain with K127I, N130K, H133P, Q142R

[6] = target: T5, cynomolgus monkey FcγRIIa2 extracellular domain, His-tagged (cynomolgus monkey); experiment: SPR Biacore, antibody captured, FcgR analyte
T5 construct: also called cyno FcγRIIa2; cynoFcgRIIa2; not shown: C-terminal His-tag
T5 chain: T2 chain

[7] = target: T6, human FcγRIIaH extracellular domain with C-terminal His-tag (human, UniProt P12318 34-217); experiment: SPR (Biacore), antibody captured, FcgR as analyte
T6 construct: also called human FcgRIIaH; FcγRIIa (type H)
T6 sequence: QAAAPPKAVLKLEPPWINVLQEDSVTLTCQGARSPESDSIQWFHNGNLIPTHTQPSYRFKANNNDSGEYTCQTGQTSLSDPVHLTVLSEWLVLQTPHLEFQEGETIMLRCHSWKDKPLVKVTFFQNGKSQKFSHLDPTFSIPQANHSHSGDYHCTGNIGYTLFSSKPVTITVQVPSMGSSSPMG

[8] = target: T7, cynomolgus monkey FcγRIIa2 extracellular domain with C-terminal His-tag (cynomolgus monkey); experiment: SPR (Biacore), antibody captured, FcgR as analyte
T7 construct: also called cyno FcgRIIa2; cynoFcγRIIa2
T7 chain: T2 chain

[9] = target: T8, human FcγRIIb extracellular domain with C-terminal His-tag (human, UniProt P31994 43-217); experiment: SPR (Biacore), KD of SG1 divided by KD of variant
T8 construct: also called human FcgRIIb
T8 sequence: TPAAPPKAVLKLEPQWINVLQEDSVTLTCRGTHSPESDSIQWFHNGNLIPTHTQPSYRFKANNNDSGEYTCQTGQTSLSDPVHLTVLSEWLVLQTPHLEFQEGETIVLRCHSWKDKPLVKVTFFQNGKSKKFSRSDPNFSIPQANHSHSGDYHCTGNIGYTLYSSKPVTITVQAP

[10] = target: T9, cynomolgus monkey FcγRIIb extracellular domain with C-terminal His-tag (cynomolgus monkey); experiment: SPR (Biacore), KD of SG1 divided by KD of variant
T9 construct: also called cyno FcgRIIb; cynoFcγRIIb
T9 chain: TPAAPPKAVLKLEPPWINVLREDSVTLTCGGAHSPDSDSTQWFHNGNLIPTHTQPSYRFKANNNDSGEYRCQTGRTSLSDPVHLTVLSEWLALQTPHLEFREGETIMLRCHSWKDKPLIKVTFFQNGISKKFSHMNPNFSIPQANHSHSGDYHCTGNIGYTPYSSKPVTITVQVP

[11] = target: T10, human FcγRIIaR extracellular domain with C-terminal His-tag (human, UniProt P12318 34-217); experiment: SPR (Biacore), KD of SG1 divided by KD of variant
T10 construct: also called human FcgRIIaR; FcγRIIa (type R)
T10 chain: T6 sequence with H134R

[12] = target: T11, cynomolgus monkey FcγRIIa1 extracellular domain with C-terminal His-tag (cynomolgus monkey); experiment: SPR (Biacore), antibody captured, FcgR as analyte
T11 construct: also called cyno FcgRIIa1; cynoFcγRIIa1
T11 chain: T2 chain with T95P, A121T, K127I, S128A, N130K, N135D, Q142R

[13] = target: T12, cynomolgus monkey FcγRIIa3 extracellular domain with C-terminal His-tag (cynomolgus monkey); experiment: SPR (Biacore), KD of SG1 divided by KD of variant
T12 construct: also called cyno FcgRIIa3; cynoFcγRIIa3
T12 chain: T2 chain with K127I, N130K, H133P, Q142R

[14] = target: T13, human FcγRIIIaV extracellular domain with C-terminal His-tag (human, UniProt P08637 17-208); experiment: SPR (Biacore), antibody captured, FcgR as analyte
T13 construct: also called human FcgRIIIaV
T13 sequence (P08637 17-208 F176V): as the sequence (P08637 17-208 F176V) above

[15] = target: T9, cynomolgus monkey FcγRIIb extracellular …; experiment: SPR (Biacore), antibody captured, FcgR as analyte
[16] = target: T7, cynomolgus monkey FcγRIIa2 …; experiment: SPR (Biacore), KD of SG1 divided by KD of variant
[17] = target: T14, human FcγRIIIaV extracellular domain, C-terminal His-tag (human, UniProt P08637 17-208); experiment: SPR (BIACORE), captured by anti-human kappa, FcgR analyte
T14 construct: also called FcgRIIIaV
T14 sequence (P08637 17-208 F176V): as the sequence (P08637 17-208 F176V) above
Procedure: as §1
Furthermore, the substitutions used in Example 29 for improving antibody half-life and reducing binding to rheumatoid factor were introduced into human FcγRIIb-enhanced Fc variants and their affinity against human FcγRs were analyzed (Table 29).

[18] = target: T15, cynomolgus monkey FcγRIIa1 extracellular domain with C-terminal His-tag (cynomolgus monkey); experiment: SPR, KD(SG1)/KD(variant)
T15 construct: also called cyno FcgRIIa1; cynoFcγRIIa1
T15 chain: T2 chain with T95P, A121T, K127I, S128A, N130K, N135D, Q142R
Procedure: as §1

B2: M103205H795-MY064/M103202L889-SK1 (antibody, human IgG1, kappa, name in EU numbering)
heavy: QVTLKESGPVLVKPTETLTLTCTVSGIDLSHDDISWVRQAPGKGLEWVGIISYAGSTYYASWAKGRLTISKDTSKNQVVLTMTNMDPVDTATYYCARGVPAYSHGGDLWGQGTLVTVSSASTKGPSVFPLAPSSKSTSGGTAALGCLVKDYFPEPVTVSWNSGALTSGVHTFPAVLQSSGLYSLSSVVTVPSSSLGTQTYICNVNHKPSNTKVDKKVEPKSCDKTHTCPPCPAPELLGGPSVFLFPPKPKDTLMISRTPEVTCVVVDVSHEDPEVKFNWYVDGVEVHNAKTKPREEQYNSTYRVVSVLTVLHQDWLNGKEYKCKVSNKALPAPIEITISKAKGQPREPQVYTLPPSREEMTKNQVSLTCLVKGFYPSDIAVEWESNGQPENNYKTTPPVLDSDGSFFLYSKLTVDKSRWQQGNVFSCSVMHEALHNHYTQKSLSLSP
light: DIVMTQSPATLSLSPGERATLSCTSSQSVYHANWLSWFQQKPGQPPKLLIYWASTLAYGVPSRFSGSGSGTDFTLTISSLQPEDAATYYCAGGYGGGRYAFGQGTKVEIKRTVAAPSVFIFPPSDEQLKSGTASVVCLLNNFYPREAKVQWKVDNALQSGNSQESVTEQDSKDSTYSLSSTLTLSKADYEKHKVYACEVTHQGLSSPVTKSFNRGEC
notes: Substitution introduced into M103205H795-SG1; EU numbering
Kd [5]: 6.9 µM
Kd [6]: 2.6 µM

B7: M103205H795-MY529 / M103202L889-SK1 (antibody, human IgG1, kappa, name in EU numbering)
heavy: QVTLKESGPVLVKPTETLTLTCTVSGIDLSHDDISWVRQAPGKGLEWVGIISYAGSTYYASWAKGRLTISKDTSKNQVVLTMTNMDPVDTATYYCARGVPAYSHGGDLWGQGTLVTVSSASTKGPSVFPLAPSSKSTSGGTAALGCLVKDYFPEPVTVSWNSGALTSGVHTFPAVLQSSGLYSLSSVVTVPSSSLGTQTYICNVNHKPSNTKVDKKVEPKSCDKTHTCPPCPAPEWLTGPSVFLFPPKPKDTLMISRTPEVTCVVVDVSDEDPEVKFNWYVDGVEVHNAKTKPREELYNSTYRVVSVLTVLHQDWLNGKEYKCKVSNKALPKPIEKTISKAKGQPREPQVYTLPPSREEMTKNQVSLTCLVKGFYPSDIAVEWESNGQPENNYKTTPPVLDSDGSFFLYSKLTVDKSRWQQGNVFSCSVMHEALHNHYTQKSLSLSP
light: B2 light
Kd [15]: 0.3 µM
KD fold (SG1 = 1) [10]: 5 fold

B9: M103205H795-MY531 / M103202L889-SK1 (antibody, human IgG1, kappa, name in EU numbering)
heavy: B7 heavy with L297Q, K328T
light: B2 light
KD fold (SG1 = 1) [16]: 5.5 fold

B10: M103205H795-MY283 / M103202L889-SK1 (antibody, human IgG1, kappa, name in EU numbering)
heavy: B7 heavy with W236L
light: B2 light
KD fold (SG1 = 1) [13]: 3.9 fold
KD fold (SG1 = 1) [11]: 3.1 fold

B11: MS103240H795-TT90/M103202L1045-SK1 (antibody)
heavy: QVQLVESGGGLVQPGGSLRLSCAVSGIDLSHDDISWVRQAPGKGLEWVSIISYAGSTYYASWAKGRLTISKDTSKNQVVLTMTNMDPVDTATYYCARGVPAYSHGGDLWGQGTLVTVSSASTKGPSVFPLAPSSKSTSGGTAALGCLVKDYFPEPVTVSWNSGALTSGVHTFPAVLQSSGLYSLSSVVTVPSSSLGTQTYICNVNHKPSNTKVDKKVEPKSCDKTHTCPPCPAPEYLGGDSVFLFPPKPKDVLMISRTPEVTCVVIDVSHEDPEVKFNWYVDGVEVHNAKTKPREEQYNSTYRVVSVLPVLHRDWLNGKEYKCKVSNKALPKPIEKTISKAKGQRREPQVYTLPPSREEMTKNQVSLTCLVKGFYPSDIAVEWESNGQPENNYKTTPPVLDSDGSFFLYSKLTVDKSRWQQGNVFSCSVMHEALHAHYTRKELSLSP
light: B2 light with S25T, A32E
Kd [17]: 960 µM

B12: MS1032LO06-PK55 (antibody, human IgG1, kappa)
heavy: B7 heavy with W236L, T238N, L297Q, Q313R, P345R
light: B2 light
notes: MY201 with Q311R/P343R; also called MS103205H795-PK55; M103205H795-MY55
Kd [1]: 3.3 µM
KD fold (SG1 = 1) [18]: 3.5 fold
KD fold (SG1 = 1) [3]: 0.08 fold

B13: MS103240H795-TT72/M103202L1045-SK1 (antibody)
heavy: B11 heavy with Y236L, R345P, D415K
light: B2 light with S25T, A32E
notes: copies: 2 + 2
Kd [17]: 900 µM

Further lines, results first:

Kd [1]: 4 µM
KD fold (SG1 = 1) [2]: 3.3 fold
KD fold (SG1 = 1) [3]: 0.07 fold
KD fold (SG1 = 1) [4]: 0.04 fold
B1: MS1032LO06-MY352 (antibody, human IgG1, kappa)
heavy: B7 heavy with W236L, T238N, L297Q, Q313R, D415R
light: B2 light
notes: MY201 with Q311R/D413R; also called M103205H795-MY352; copies: 2 + 2

Kd [7]: 0.29 µM
Kd [8]: 3.3 µM
KD fold (SG1 = 1) [9]: 3.1 fold
KD fold (SG1 = 1) [10]: 2.3 fold
KD fold (SG1 = 1) [11]: 3.7 fold
B3: M103205H795-MY521 / M103202L889-SK1 (antibody)
heavy: B7 heavy with P234D, W236L
light: B2 light
notes: 'Q235L' copied as printed, probably Q295L

Kd [12]: 0.93 µM
KD fold (SG1 = 1) [13]: 5.2 fold
B4: M103205H795-MY380 / M103202L889-SK1 (antibody, human IgG1, kappa, name in EU numbering)
heavy: B7 heavy with W236L, T238N, D270E, L297Q, P398K
light: B2 light

Kd [14]: 0.0024 µM
Kd [15]: 1.6 µM
B5: M103205H795-MY388 (first row so labelled: G236L/H268D/Q295L/K326T/A330K) / M103202L889-SK1 (antibody, human IgG1, kappa, name in EU numbering)
heavy: B7 heavy with W236L, T238L, K328T
light: B2 light
notes: The label MY388 is printed for two different variants; also called MY388 (first of two rows with this label)

KD fold (SG1 = 1) [9]: 3.3 fold
KD fold (SG1 = 1) [10]: 5.3 fold
KD fold (SG1 = 1) [16]: 3.9 fold
B6: M103205H795-MY527 / M103202L889-SK1 (antibody, human IgG1, kappa, name in EU numbering)
heavy: B7 heavy with A233T, W236L
light: B2 light

Kd [17]: 930 µM
B8: MS103240H795-TT69/M103202L1045-SK1 (antibody)
heavy: B11 heavy with Y236L, I266V, R345P, D415K, M430L, Y438T
light: B2 light with S25T, A32E
notes: copies: 2 + 2
